Legend:
[1] = target: crNRG2 (cleavage-resistant variant of proNRG2) (human) (UniProt O14511); test: co-IP; co-IP of VAP with crNRG2 from transduced rat hippocampal neurons; neurons untreated (Ctrl), treated 10 min with NMDA (50 µM), or with NMDA and D-AP5 (50 µM); VAP signals normalized to Ctrl = 1
[2] = target: VAP, endogenous in cultured rat hippocampal neurons (UniProt Q9Z270); test: GST pulldown with peptide competition, Western blot densitometry (VAP left on GST-NRG2_CD bait; lower signal = stronger competition by the peptide); settings: lysate of untransduced neurons, n = three independent experiments, parent: est. 0.14, read off a plot, scale: normalized VAP signal
[3] = target: VAP, endogenous in cultured rat hippocampal neurons (UniProt Q9Z270); test: co-immunoprecipitation (IP: NRG2 (V5)), Western blot densitometry; settings: AAV-transduced neurons; n = four independent experiments; parent: 1.00; read off a plot

Row | Substance | ratio to parent [3] | also measured
1 | VAP, endogenous in cultured rat hippocampal neurons (from UniProt Q9Z270 1-249) (natural protein) | – | normalized VAP co-IP signal after 10 min NMDA 50 µM (Ctrl = 1) (relative to Ctrl = 1) [1]: 0.31; normalized VAP co-IP signal after NMDA with D-AP5 50 µM (Ctrl = 1) (relative to Ctrl = 1) [1]: 1.1
2 | D-WT peptide (wild-type D-box peptide of NRG2) D620K; E622K | – | response [2]: 0.63
3 | V5 epitope-tagged proNRG2 (wild type), expressed in cultured rat hippocampal neurons (from UniProt O14511) S494A; S497A; S502A; T506A; S511A; S613A; T625A; T626A | 0 | –
4 | V5 epitope-tagged proNRG2 (wild type), expressed in cultured rat hippocampal neurons (from UniProt O14511) S494A; S497A; S502A; T506A; S511A | 0 | –
5 | V5 epitope-tagged proNRG2 (wild type), expressed in cultured rat hippocampal neurons (from UniProt O14511) S613A; T625A; T626A | 0.73 | –

— PMC9917868
